Data reported in paper doi:10.1101/406538 (bioRxiv, 2018).

Target: T1, ATI2-N, N-terminal region of ATG8 Interacting Protein 2 (M1-T193) (Arabidopsis thaliana, UniProt Q8VY98 1-193)
T1 sequence (looked up): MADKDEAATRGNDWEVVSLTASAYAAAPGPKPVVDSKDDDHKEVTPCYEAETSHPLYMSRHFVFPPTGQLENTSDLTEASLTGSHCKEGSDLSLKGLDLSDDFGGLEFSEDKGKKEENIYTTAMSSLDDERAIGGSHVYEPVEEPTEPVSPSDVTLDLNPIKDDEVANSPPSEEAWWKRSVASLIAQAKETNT
Assay: NMR titration

binding result: binds
B1: ATG8f, processed form (1-117), recombinant (natural protein, Arabidopsis thaliana, UniProt Q8VYK7 1-117, looked up)
chain: MAKSSFKQEHDLEKRRAEAARIREKYPDRIPVIVEKAEKSDIPTIDKKKYLVPADLTVGQFVYVIRKRIKLSAEKAIFIFVDNVLPPAGALMSSVYEEKKDDDGFLYVTYSGENTFG
